Assay results as given in patent publication US12241094B2, “Phenazine degrading agents and related compositions, methods and systems for interfering with viability of bacteria” (priority 2016, dated 2025).
Entries after “also recorded” stand apart in the source; their conditions may differ. Like-named read-outs stand apart in the source and are kept apart here.

How the values were obtained:
[1] = PYO demethylation by purified PodA30-162 and mutants (spectrophotometric/HPLC); type: biochemical
Description: Enzyme activity and analysis. PYO demethylation by PodA30-162 was first determined by HPLC analysis as described previously (6, 9). To detect formaldehyde evolution, 150 nM protein was mixed with 50 μM PYO in 1 mL of 20 mM Tris pH 7.6 amended with 200 μL Nash reagent (2 M ammonium acetate, 50 mM acetic acid, 20 mM acetylacetone) and incubated at 55° C. until the reaction proceeded to completion (37, 38). The products were determined by HPLC using the same method as used for phenazine quantification. To monitor the formation of reduced phenazine, protein and 50 μM PYO were placed into an anaerobic chamber (Coy Laboratory Products) under an atmosphere of H2/N2 (5:95) and left overnight before allowing the reaction to proceed. To generate reduced PYO and 1-OH-PHZ, 50 μM were mixed with 1 mM sodium dithionite. The formation of reduced phenazine products was assayed visually under UV illumination (39). A BioTek Synergy 4 microplate reader (BioTek) plate reader in the anaerobic chamber was used to measure the emission spectrum of products with excitation at 250 nm. To determine the activity of PodA30-162 in the presence of glycerol, salts, or varying pH, 30 nM protein was suspended in 500 μL buffer, 40 μM PYO was mixed with 2× solution containing the buffer of interest (500 μL), and solutions were preheated to 30 C. For pH range measurements, the following buffers were used (40 mM, adjusted with KOH): acetic acid, pH 4.9; MES, pH 5.4 and 5.7; HEPES, pH 6.1; Tris, pH 6.9 and 7.5; Bicine, pH 7.8, 8.3 and 8.7; CHES, pH 9.4. To measure reaction rates, cuvettes containing the 2×PYO solution were placed in a Evolution 260Bio UV-Vis spectrophotometer (Thermo Scientific) and 500 μL of 30 nM protein was added at time 0 (15 nM protein and 20 μM PYO, final concentration). Reaction progress was monitored by measuring absorbance at 313 nm (40) every 0.5 seconds for 5 minutes. To measure kinetic parameters (kcat, Km) 15 nM protein was used in a reaction buffer of Bicine, pH 7.8; reactions were monitored as before with measurements every 0.2 seconds. The rate from the first 10 seconds of the reaction was used for the determination of kinetic parameters. Kinetic parameters were calculated in Microsoft Excel using the Solver plug-in and fitting data to ideal Michaelis-Menton plots with non-linear regression of experimental data (41). For measurements of the rate of methoxy-PMS demethylation, 300 nM protein was used and methoxy-PMS loss from the reaction mixture was monitored at 500 nm wavelength. Methoxy-PMS was purchased from TCI America. For assays with mutant proteins, 60 nM protein was used. The stimulatory effects of flavin or 2-oxoglutarate addition was determined by adding 25 μM flavin or 2-oxoglutarate to 20 μM PYO and 15 nM PodA30-162 and monitoring the reaction. Experiments testing alternative substrates were carried out using 1 mL reaction volumes containing 20 mM Tris (pH 7.6) and 50 μg mL^−1 PodA30-162. Alternative substrates tested were 10-methylphenothiazine (AlfaAesar), phenazine methosulfate (AlfaAesar), methoxyphenazine methosulfate (TCI America), and 4-keto-N-ethylphenazine. 4-keto-N-ethylphenazine was synthesized from phenazine ethosulfate (Sigma-Aldrich) by incubating under fluorescent light overnight followed by purification by HPLC as described (6, 42). As phenazine methosulfate is light sensitive and spontaneously converts to PYO in the presence of light, all reactions were carried out in the dark, and activity was assessed by end point analysis by HPLC after 4 hours (9).

P. aeruginosa biofilm = assay: Microcolony number and size in 5 hour biofilms on succinate minimal medium; type: cell-based; details: 100 μM 1-OHPHZ or 0.5 μg mL-1 PodA
Description: FIGS. 24A-C show charts and images illustrating results of exemplary experiments showing that PodA and 1-OH-PHZ inhibit the early stages of P. aeruginosa biofilm formation on succinate minimal medium. […] Numbers are averages and SD from 8 biological replicates.

[2] = tested on: P. aeruginosa planktonic culture; assay: Phenazines in planktonic P. aeruginosa cultures (HPLC); type: cell-based
Description: Product was cut with DpnI to remove WT vector, phosphorylated with T4 polynucleotide kinase, and ligated to generate a circular mutant protein expression construct. For D72N and Y156F mutants, DNA fragments encoding the mutation were synthesized (Integrated DNA Technologies) and cloned into pET-20b(+) as for the wild type sequence. Enzymes for cloning were purchased from New England Biolabs. Constructs were transferred to E. coli BL21(DE3) for expression. All mutations were confirmed by Sanger sequencing (Laragen and Retrogen). When necessary, 100 μg mL^−1 carbenicillin was included in all growth media to maintain selection for the plasmid. To measure the effect of PodA30-162 on phenazine production in planktonically grown P. aeruginosa, cultures were grown overnight in 5 mL volumes of tryptic soy broth (TSB) or succinate minimal medium (arginine medium recipe from Glasser et al., 2014 with 40 mM sodium succinate in place of arginine) (3) in the presence 1 μg mL^−1 PodA30-162. Cells were removed by centrifugation and supernatants were analyzed by HPLC as previously described (9). See below for a description of biofilm growth of P. aeruginosa PA14. To induce protein expression, an overnight culture was inoculated 1/1000 in Terrific Broth (BD Difco). Cultures were grown in baffled Erlenmeyer flasks (1 L culture per 3 L flask) at 37° C. with 150 rpm agitation in a shaking incubator (Innova 44 shaking incubator, New Brunswick). After 3-4 hours, the temperature was changed to 16° C. and cultures were induced with 50 μM (final concentration) IPTG and left to incubate overnight. Cells were then pelleted by centrifugation, flash frozen in liquid N2, and stored at −80° C. for up to 1 month before protein purification.

B1: PodA30-162: truncated pyocyanin demethylase encoded by MFORT_14352 of Mycobacterium fortuitum lacking N-terminal helix, SEQ ID NO: 2 (protein, listed as Mycobacterium fortuitum)
chain: MDGRGGRSTTEPVTMTLDVKNDQVAKHDFGKPGMDVGDMDIFSDILSVDGKQVGYDGGACFFTNVTPDNPMTYCELTIHLDAGEIFARSLTPHTLAPFTMAITGGTGEYANSKGELTVSGVATPDEKYELKLTKAENLYFQ
activity in presence of glycerol or KCl or NaCl salts ([1]; 20 μM PYO, 15 nM PodA30-162): minimally inhibited
pH regime over which enzyme operates ([1]; 20 μM PYO, 15 nM PodA30-162): 4.9-8.7 pH
pH above which activity is lost ([1]; 20 μM PYO, 15 nM PodA30-162, 5 minutes): > 9 pH
activity in presence of flavins (FMN, FAD) or 2-oxoglutarate ([1]; 25 μM, 15 nM PodA30-162): not stimulated
activity under anoxic conditions ([1]; 50 μM PYO, anaerobic chamber): functions under anoxic conditions; also recorded: active
salt concentrations over which enzyme operates ([1]; KCl or NaCl): 0 to 400 mM
kcat ([1]; PYO substrate, 15 nM protein, Bicine pH 7.8): 1.20 ± 0.07 s⁻¹
Km ([1]; PYO substrate, 15 nM protein, Bicine pH 7.8, read-out: Km): < 1 µM
Km ([1]; best fit to Michaelis-Menton plot, 15 nM PodA30-162, PYO detection limit 0.5 μM, read-out: apparent Km): < 1 µM
microcolony diameter (P. aeruginosa biofilm): decreases
number of microcolonies formed (P. aeruginosa biofilm; vs inactive E154A): decreases
total phenazine concentrations ([2]; TSB): remain constant
enzyme stability in P. aeruginosa overnight culture ([2]; TSB, enzyme added at start of culture): remained stable throughout the incubation period
effect on PYO in planktonic culture ([2]; rich and minimal medium, 1 μg mL^−1 PodA30-162): conversion of PYO to 1-OH-PHZ
phenazine production ([2]; tryptic soy broth, 24 hours): changes to the concentrations of all four phenazines
